# Assay results: publication PMC10786891, “Massively parallel profiling of RNA-targeting CRISPR-Cas13d”
# Positions count from the first letter of the chain named. Numbers in names are those of the source.
# T1: EsCas13d, nuclease-dead (Eubacterium siraeum, UniProt B0MS50, R295A;H300A;R849A;H854A)
# T1 sequence: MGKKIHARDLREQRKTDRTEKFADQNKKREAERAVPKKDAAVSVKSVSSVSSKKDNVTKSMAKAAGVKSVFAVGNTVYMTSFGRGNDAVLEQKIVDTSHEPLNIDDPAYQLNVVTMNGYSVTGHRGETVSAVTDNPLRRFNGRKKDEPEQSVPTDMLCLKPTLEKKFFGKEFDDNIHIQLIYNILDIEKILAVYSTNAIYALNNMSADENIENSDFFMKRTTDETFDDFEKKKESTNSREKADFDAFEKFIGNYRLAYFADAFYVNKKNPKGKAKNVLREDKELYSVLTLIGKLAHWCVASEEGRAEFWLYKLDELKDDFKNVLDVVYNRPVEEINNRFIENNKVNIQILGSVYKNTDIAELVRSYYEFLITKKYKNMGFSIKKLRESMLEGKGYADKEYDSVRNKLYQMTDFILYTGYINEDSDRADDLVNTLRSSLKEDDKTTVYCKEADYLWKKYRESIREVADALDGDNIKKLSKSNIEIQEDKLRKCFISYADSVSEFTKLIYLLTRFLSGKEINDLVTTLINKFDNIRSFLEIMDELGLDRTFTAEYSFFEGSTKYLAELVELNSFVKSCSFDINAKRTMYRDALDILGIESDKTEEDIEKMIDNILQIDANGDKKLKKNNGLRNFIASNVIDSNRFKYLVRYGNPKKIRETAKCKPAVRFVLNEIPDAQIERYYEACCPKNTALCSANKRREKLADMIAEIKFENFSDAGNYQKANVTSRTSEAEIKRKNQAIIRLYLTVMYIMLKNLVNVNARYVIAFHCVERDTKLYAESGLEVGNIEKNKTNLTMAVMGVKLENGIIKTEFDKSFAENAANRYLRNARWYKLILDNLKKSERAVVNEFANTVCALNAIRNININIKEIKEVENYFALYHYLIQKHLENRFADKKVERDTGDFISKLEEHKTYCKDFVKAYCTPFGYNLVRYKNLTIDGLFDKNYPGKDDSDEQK
# B1: target 1 MT 5'PFS GUG 3'PFS GUA (mixed)
# RNA 1: CACCCGUGCAAAAAUGCAGGGGUCUAAAACUGAGCGGAUAACCUCUCUAUGG
# RNA 2: GGGAAUGGAUCCACAUCUACGAAUUCGUGCCAUAGAGAGGUUAUCCGCUCAGUAAGAUCGGAAGAGCACACGU
# B2: target 1 MT 5'PFS GUC 3'PFS AAC (mixed)
# RNA 1: B1 RNA 1
# RNA 2: B1 RNA 2 with G29C, G52A, U53A, A54C
# B3: target 1 MT 5'PFS UCA 3'PFS AGA (mixed)
# RNA 1: B1 RNA 1
# RNA 2: B1 RNA 2 with G27U, U28C, G29A, G52A, U53G
# B4: target 1 MT 5'PFS AGC 3'PFS CUA (mixed)
# RNA 1: B1 RNA 1
# RNA 2: B1 RNA 2 with G27A, U28G, G29C, G52C
# B5: target 1 MT 5'PFS CAG 3'PFS AGC (mixed)
# RNA 1: B1 RNA 1
# RNA 2: B1 RNA 2 with G27C, U28A, G52A, U53G, A54C
# B6: target 1 MT 5'PFS CUG 3'PFS AAA (mixed)
# RNA 1: B1 RNA 1
# RNA 2: B1 RNA 2 with G27C, G52A, U53A
# B7: target 1 MT 5'PFS AGC 3'PFS CUU (mixed)
# RNA 1: B1 RNA 1
# RNA 2: B1 RNA 2 with G27A, U28G, G29C, G52C, A54U
# B8: target 1 MT 5'PFS CUA 3'PFS ACC (mixed)
# RNA 1: B1 RNA 1
# RNA 2: B1 RNA 2 with G27C, G29A, G52A, U53C, A54C
# B9: target 1 MT 5'PFS UGC 3'PFS UAA (mixed)
# RNA 1: B1 RNA 1
# RNA 2: B1 RNA 2 with G27U, U28G, G29C, G52U, U53A
# B10: target 1 MT 5'PFS AAC 3'PFS CGG (mixed)
# RNA 1: B1 RNA 1
# RNA 2: B1 RNA 2 with G27A, U28A, G29C, G52C, U53G, A54G
# B11: target 1 MT 5'PFS CAC 3'PFS AUA (mixed)
# RNA 1: B1 RNA 1
# RNA 2: B1 RNA 2 with G27C, U28A, G29C, G52A
# B12: target 1 MT 5'PFS GCG 3'PFS AUG (mixed)
# RNA 1: B1 RNA 1
# RNA 2: B1 RNA 2 with U28C, G52A, A54G
# B13: target 1 MT 5'PFS CCU 3'PFS CCG (mixed)
# RNA 1: B1 RNA 1
# RNA 2: B1 RNA 2 with G27C, U28C, G29U, G52C, U53C, A54G
# B14: target 1 MT 5'PFS CAG 3'PFS AGU (mixed)
# RNA 1: B1 RNA 1
# RNA 2: B1 RNA 2 with G27C, U28A, G52A, U53G, A54U
# B15: target 1 MT 5'PFS UUU 3'PFS UCC (mixed)
# RNA 1: B1 RNA 1
# RNA 2: B1 RNA 2 with G27U, G29U, G52U, U53C, A54C
# B16: target 1 MT 5'PFS UCA 3'PFS CGG (mixed)
# RNA 1: B1 RNA 1
# RNA 2: B1 RNA 2 with G27U, U28C, G29A, G52C, U53G, A54G
# B17: target 1 MT 5'PFS AAC 3'PFS UUG (mixed)
# RNA 1: B1 RNA 1
# RNA 2: B1 RNA 2 with G27A, U28A, G29C, G52U, A54G
# B18: target 1 MT 5'PFS CUA 3'PFS ACA (mixed)
# RNA 1: B1 RNA 1
# RNA 2: B1 RNA 2 with G27C, G29A, G52A, U53C
# B19: target 1 MT 5'PFS UUG 3'PFS UUA (mixed)
# RNA 1: B1 RNA 1
# RNA 2: B1 RNA 2 with G27U, G52U
# B20: target 1 G13A,C22A (mixed)
# RNA 1: B1 RNA 1
# RNA 2: B1 RNA 2 with G29A, C30A, G39A, G52C, U53C, A54G
# B21: target 1 MT 5'PFS UCA 3'PFS CGC (mixed)
# RNA 1: B1 RNA 1
# RNA 2: B1 RNA 2 with G27U, U28C, G29A, G52C, U53G, A54C
# B22: target 1 MT 5'PFS UCA 3'PFS AGU (mixed)
# RNA 1: B1 RNA 1
# RNA 2: B1 RNA 2 with G27U, U28C, G29A, G52A, U53G, A54U
# B23: target 1 MT 5'PFS GCG 3'PFS AUC (mixed)
# RNA 1: B1 RNA 1
# RNA 2: B1 RNA 2 with U28C, G52A, A54C
# B24: target 1 MT 5'PFS CCC 3'PFS CUA (mixed)
# RNA 1: B1 RNA 1
# RNA 2: B1 RNA 2 with G27C, U28C, G29C, G52C
# B25: target 1 MT 5'PFS GCG 3'PFS AUA (mixed)
# RNA 1: B1 RNA 1
# RNA 2: B1 RNA 2 with U28C, G52A
# B26: target 1 MT 5'PFS CCC 3'PFS CUG (mixed)
# RNA 1: B1 RNA 1
# RNA 2: B1 RNA 2 with G27C, U28C, G29C, G52C, A54G
# B27: target 1 insA 3' of 21,insC 3' of 13 (mixed)
# RNA 1: B1 RNA 1
# RNA 2: GGGAAUGGAUCCACAUCUACGAAUUCGUACCAAUAGAGAGCGUUAUCCGCUCACCGAGAUCGGAAGAGCACACGU
# B28: target 1 MT 5'PFS CAC 3'PFS AUC (mixed)
# RNA 1: B1 RNA 1
# RNA 2: B1 RNA 2 with G27C, U28A, G29C, G52A, A54C
# B29: target 1 MT 5'PFS GAG 3'PFS CCG (mixed)
# RNA 1: B1 RNA 1
# RNA 2: B1 RNA 2 with U28A, G52C, U53C, A54G
# B30: target 1 MT 5'PFS AAA 3'PFS AGA (mixed)
# RNA 1: B1 RNA 1
# RNA 2: B1 RNA 2 with G27A, U28A, G29A, G52A, U53G
# B31: target 1 MT 5'PFS UCG 3'PFS UCU (mixed)
# RNA 1: B1 RNA 1
# RNA 2: B1 RNA 2 with G27U, U28C, G52U, U53C, A54U
# B32: target 1 MT 5'PFS UGC 3'PFS UAG (mixed)
# RNA 1: B1 RNA 1
# RNA 2: B1 RNA 2 with G27U, U28G, G29C, G52U, U53A, A54G
# B33: target 1 MT 5'PFS CUA 3'PFS ACU (mixed)
# RNA 1: B1 RNA 1
# RNA 2: B1 RNA 2 with G27C, G29A, G52A, U53C, A54U
# B34: target 1 MT 5'PFS GCG 3'PFS AUU (mixed)
# RNA 1: B1 RNA 1
# RNA 2: B1 RNA 2 with U28C, G52A, A54U
# B35: target 1 MT 5'PFS CUA 3'PFS ACG (mixed)
# RNA 1: B1 RNA 1
# RNA 2: B1 RNA 2 with G27C, G29A, G52A, U53C, A54G
# B36: target 1 MT 5'PFS ACG 3'PFS CGA (mixed)
# RNA 1: B1 RNA 1
# RNA 2: B1 RNA 2 with G27A, U28C, G52C, U53G
# B37: target 1 MT 5'PFS UCA 3'PFS AGG (mixed)
# RNA 1: B1 RNA 1
# RNA 2: B1 RNA 2 with G27U, U28C, G29A, G52A, U53G, A54G
# B38: target 1 MT 5'PFS ACU 3'PFS UAU (mixed)
# RNA 1: B1 RNA 1
# RNA 2: B1 RNA 2 with G27A, U28C, G29U, G52U, U53A, A54U
# B39: target 1 insC 3' of 11,insU 3' of 5 (mixed)
# RNA 1: B1 RNA 1
# RNA 2: GGGAAUGGAUCCACAUCUACGAAUUCGUACCAUAGAGAGGUCUAUCCGUCUCACCGAGAUCGGAAGAGCACACGU
# Target: T1, EsCas13d, nuclease-dead
# Experiment: crRNA (strand 1, pre-loaded); Mg2+; 40 mM Tris-HCl pH 7.5, 150 mM NaCl, 6 mM MgCl2, 1 mM DTT, 0.1% Tween-20, 0.2 mg/ml BSA; 25 C; 10 min per concentration, then washed
# Conditions: tags: His6-TwinStrep-SUMO cleaved; N-terminal SNAP kept (SNAP-Surface 488); label: 3' end held by stalled T7 RNA polymerase
row,Binder,Kd [nM]
1,B1,12.2 ± 1.6
2,B2,36.5 ± 17.5
3,B3,20.5 ± 8.5
4,B4,13.9 ± 4.8
5,B5,20.5 ± 9
6,B6,10.6 ± 2.7
7,B7,9.35 ± 3.2
8,B8,5 ± 1.85
9,B9,16 ± 4.5
10,B10,31 ± 7
11,B11,~17
12,B12,30.5 ± 8
13,B13,16.5 ± 7.5
14,B14,57 ± 22.5
15,B15,90 ± 45
16,B16,52.5 ± 25
17,B17,15.3 ± 3.3
18,B18,9.65 ± 2.5
19,B19,20.1 ± 3.2
20,B20,9.6 ± 0.5

row,Binder,Kd [nM]
1,B21,10.8 ± 3.85
2,B22,24.6 ± 5.5
3,B23,22 ± 6
4,B24,~17
5,B25,16.2 ± 2.5
6,B26,~9.5
7,B27,32 ± 4
8,B28,~28.5
9,B29,~25
10,B30,33 ± 12.5
11,B31,36 ± 10.5
12,B32,15.9 ± 4.1
13,B33,4.95 ± 1
14,B34,20 ± 7.5
15,B35,6.05 ± 1.8
16,B36,28 ± 12
17,B37,~100
18,B38,~72.5
19,B39,15 ± 0.8
